According to publication PMC7717172:

Target: inactive Minerva virus protease (norovirus GII.4 NS6 protease, C139A) (norovirus GII.4 (Minerva virus))
Test: crystal structure

inactive Minerva virus protease (norovirus GII.4 NS6 protease, C139A) (enzyme)
stoichiometry N: 2
